# Source: patent US20200230201A1 (CITY OF HOPE, published 2020)
# Substitutions are numbered along the chain they refer to. In names and notes the source's numbering stands.
# B1: TWIST1 (wild type, Myc-His tagged) (other, not shown: small tags and cut ends)
# chain: MMQDVSSSPVSPADDSLSNSEEEPDRQQPPSGKRGGRKRRSSRRSAGGGAGPGGAAGGGVGGGDEPGSPAQGKRGKKSAGCGGGGGAGGGGGSSSGGGSPQSYEELQTQRVMANVRERQRTQSLNEAFAALRKIIPTLPSDKLSKIQTLKLAARYIDFLYQVLQSDELDSKMASCSYVAHERLSYAFSVWRMEGAWSMSASH
# B2: TWIST1 R191A (other, not shown: small tags and cut ends)
# chain: B1 chain with R191A
# B3: TWIST1 W190A (other, not shown: small tags and cut ends)
# chain: B1 chain with W190A
# B4: TWIST1 E193A (other, not shown: small tags and cut ends)
# chain: B1 chain with E193A
# Target: RELA (wild type) (UniProt Q04206 1-551)
# Assay: cell-based or functional assay
# RELA (wild type), sequence (Q04206 whole entry): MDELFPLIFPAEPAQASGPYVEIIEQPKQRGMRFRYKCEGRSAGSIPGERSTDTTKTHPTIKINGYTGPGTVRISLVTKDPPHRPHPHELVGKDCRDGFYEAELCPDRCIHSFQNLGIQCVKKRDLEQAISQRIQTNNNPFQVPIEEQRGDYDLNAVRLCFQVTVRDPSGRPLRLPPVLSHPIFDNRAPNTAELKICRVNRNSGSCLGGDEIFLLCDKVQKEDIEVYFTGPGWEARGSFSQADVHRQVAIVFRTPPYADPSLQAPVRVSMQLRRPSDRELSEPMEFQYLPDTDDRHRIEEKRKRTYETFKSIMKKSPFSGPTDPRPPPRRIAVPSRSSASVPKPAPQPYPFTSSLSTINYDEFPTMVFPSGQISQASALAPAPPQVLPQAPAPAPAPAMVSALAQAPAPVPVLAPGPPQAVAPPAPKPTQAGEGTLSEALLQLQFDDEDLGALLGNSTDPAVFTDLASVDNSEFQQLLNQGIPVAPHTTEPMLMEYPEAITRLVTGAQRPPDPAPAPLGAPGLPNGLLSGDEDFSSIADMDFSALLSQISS
"IL-8 promoter driven firefly luciferase (FFluc), dual luciferase assay, Ovcar4 cells [fold]","decrease in IL-8 promoter driven firefly luciferase (FFluc), dual luciferase assay, Ovcar4 cells [%]",Binder
~2,–,B1
–,~50,B2
–,~50,B3
–,~50,B4
